Publication PMC12338045 (Science (New York, N.Y.), 2025)

Experiments:
[1] = target: T1, Mcm4 (yeast) (budding yeast, UniProt P30665 1-933); assay: cryo-EM structure
T1 sequence: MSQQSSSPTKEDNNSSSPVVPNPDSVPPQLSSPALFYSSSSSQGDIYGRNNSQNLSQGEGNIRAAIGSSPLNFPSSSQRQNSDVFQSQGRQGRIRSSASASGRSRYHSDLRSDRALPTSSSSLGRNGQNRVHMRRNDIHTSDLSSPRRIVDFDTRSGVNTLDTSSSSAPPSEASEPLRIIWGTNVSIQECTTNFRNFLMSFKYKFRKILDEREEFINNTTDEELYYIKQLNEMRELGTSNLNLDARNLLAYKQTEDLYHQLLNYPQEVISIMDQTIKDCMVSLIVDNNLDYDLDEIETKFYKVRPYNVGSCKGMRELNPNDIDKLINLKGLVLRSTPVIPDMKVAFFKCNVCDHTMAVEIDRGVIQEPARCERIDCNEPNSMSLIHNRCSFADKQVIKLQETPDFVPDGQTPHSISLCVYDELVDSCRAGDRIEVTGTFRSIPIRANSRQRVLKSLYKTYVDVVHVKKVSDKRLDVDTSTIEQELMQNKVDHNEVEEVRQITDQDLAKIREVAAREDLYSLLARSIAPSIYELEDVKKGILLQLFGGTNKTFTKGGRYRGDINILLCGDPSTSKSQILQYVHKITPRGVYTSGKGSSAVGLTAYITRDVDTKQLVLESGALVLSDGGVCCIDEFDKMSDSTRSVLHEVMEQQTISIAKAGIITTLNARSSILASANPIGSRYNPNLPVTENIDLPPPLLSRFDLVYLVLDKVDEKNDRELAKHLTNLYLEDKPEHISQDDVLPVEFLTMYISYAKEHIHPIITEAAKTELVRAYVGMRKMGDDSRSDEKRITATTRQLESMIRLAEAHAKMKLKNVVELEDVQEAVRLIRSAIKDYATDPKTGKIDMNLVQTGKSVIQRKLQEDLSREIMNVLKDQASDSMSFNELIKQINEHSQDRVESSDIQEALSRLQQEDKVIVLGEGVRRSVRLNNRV

[2] = target: Mcm3 (yeast) (budding yeast, UniProt P24279 1-971); assay: cryo-EM structure
Sequence of Mcm3 (yeast) (P24279 whole entry): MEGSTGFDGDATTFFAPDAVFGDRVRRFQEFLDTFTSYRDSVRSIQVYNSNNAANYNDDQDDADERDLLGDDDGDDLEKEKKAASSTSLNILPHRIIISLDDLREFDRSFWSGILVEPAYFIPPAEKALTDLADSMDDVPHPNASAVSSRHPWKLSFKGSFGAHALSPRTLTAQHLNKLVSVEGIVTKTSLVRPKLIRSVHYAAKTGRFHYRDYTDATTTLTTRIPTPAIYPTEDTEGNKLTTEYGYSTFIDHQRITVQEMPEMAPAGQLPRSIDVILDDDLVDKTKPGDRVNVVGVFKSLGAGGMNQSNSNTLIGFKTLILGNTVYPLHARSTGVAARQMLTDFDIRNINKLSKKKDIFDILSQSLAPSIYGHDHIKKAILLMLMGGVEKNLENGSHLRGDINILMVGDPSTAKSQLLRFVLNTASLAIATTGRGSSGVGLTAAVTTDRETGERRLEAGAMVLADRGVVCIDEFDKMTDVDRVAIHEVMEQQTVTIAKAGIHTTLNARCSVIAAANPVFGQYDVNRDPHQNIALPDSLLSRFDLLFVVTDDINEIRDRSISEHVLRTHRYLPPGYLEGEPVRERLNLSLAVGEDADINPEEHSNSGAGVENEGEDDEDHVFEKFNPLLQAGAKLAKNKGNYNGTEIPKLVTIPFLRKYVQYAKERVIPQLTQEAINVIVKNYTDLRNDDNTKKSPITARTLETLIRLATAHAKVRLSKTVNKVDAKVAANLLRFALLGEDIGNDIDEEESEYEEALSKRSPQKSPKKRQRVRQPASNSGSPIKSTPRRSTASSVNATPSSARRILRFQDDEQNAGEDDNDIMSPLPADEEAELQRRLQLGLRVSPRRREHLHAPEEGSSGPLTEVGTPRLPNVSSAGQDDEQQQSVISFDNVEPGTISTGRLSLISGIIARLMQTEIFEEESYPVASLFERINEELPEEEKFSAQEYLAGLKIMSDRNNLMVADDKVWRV

B1: Mcm7 (yeast) (natural protein, budding yeast)
chain: MSAALPSIQLPVDYNNLFNEITDFLVTFKQDTLSSDATRNENEDENLDAENIEQHLLEKGPKYMAMLQKVANRELNSVIIDLDDILQYQNEKFLQGTQADDLVSAIQQNANHFTELFCRAIDNNMPLPTKEIDYKDDVLDVILNQRRLRNERMLSDRTNEIRSENLMDTTMDPPSSMNDALREVVEDETELFPPNLTRRYFLYFKPLSQNCARRYRKKAISSKPLSVRQIKGDFLGQLITVRGIITRVSDVKPAVEVIAYTCDQCGYEVFQEVNSRTFTPLSECTSEECSQNQTKGQLFMSTRASKFSAFQECKIQELSQQVPVGHIPRSLNIHVNGTLVRSLSPGDIVDVTGIFLPAPYTGFKALKAGLLTETYLEAQFVRQHKKKFASFSLTSDVEERVMELITSGDVYNRLAKSIAPEIYGNLDVKKALLLLLVGGVDKRVGDGMKIRGDINVCLMGDPGVAKSQLLKAICKISPRGVYTTGKGSSGVGLTAAVMKDPVTDEMILEGGALVLADNGICCIDEFDKMDESDRTAIHEVMEQQTISISKAGINTTLNARTSILAAANPLYGRYNPRLSPLDNINLPAALLSRFDILFLMLDIPSRDDDEKLAEHVTYVHMHNKQPDLDFTPVEPSKMREYIAYAKTKRPVMSEAVNDYVVQAYIRLRQDSKREMDSKFSFGQATPRTLLGIIRLSQALAKLRLADMVDIDDVEEALRLVRVSKESLYQETNKSKEDESPTTKIFTIIKKMLQETGKNTLSYENIVKTVRLRGFTMLQLSNCIQEYSYLNVWHLINEGNTLKFVDDGTMDTDQEDSLVSTPKLAPQTTASANVSAQDSDIDLQDA
Q: Does B1 bind [1]?
A: Result: binds

Q: Does B1 bind [2]?
A: Result: binds
